Laboratory results reported in patent US12527862B2, “Bactericidal/permeability increasing protein for use in a method of immunization, preferably as an adjuvant in a method of vaccination” (UNIVERSITÄT REGENSBURG, priority 2018, dated 2026).

Legend:
Assay type in all cases: cell-based, C57BL/6J mice
BMDCs [1] = test: Quantitative real-time PCR gene expression in BMDCs; details: BMDCs stimulated with BPI; rtPCR normalized to HPRT, also microarray (FIGS. 2B and C)
Method: Gene expression analyses using rtPCR were performed 30 min, 1 h, 2 h, 4 h, 8 h, 12 h, 24 h and 48 h after the stimulation.
After stimulation, cells were lysed and RNA was isolated using RNeasyR Mini Kit (#74106, Qiagen). Remaining DNA in the sample was digested using TURBO DNA-free™ Kit (#AM1907, ThermoFisher Scientific). Finally, the RNA concentration was measured with a NanoDrop 1000 (Thermo Scientific). The isolated RNA was transcribed into complementary DNA (cDNA) using the iScript™ª Advanced cDNA Synthesis Kit (#1725038, Bio-Rad).
To analyze altered gene transcription, in particular of genes CXCL10, HPRT, IL-2, IL-6, and IL-12p40, in response to different stimulatory reagents, quantitative real-time PCR (qRT-PCR) was performed using SYBR-Green Master Mix (LightCycler® 480 SYBR Green I Master, #4707516001, Roche). Gene-specific primers synthesized by Thermo Fisher Scientific, Microsynth, Biomers, and Metabion were used. PCR reaction was performed using the HT 7900 Real-Time PCR system (Applied Biosystems). SDS software version 2.4 (Applied Biosystems) was used to analyze the gene expression, which was normalized to the housekeeping gene HPRT. 2^-ΔΔCT method was used to analyze the data.

BMDCs [2] = test: Cytokine protein secretion by BMDCs (Luminex)
Method: All methods mentioned in this example were carried out as described in the preceding examples. Cells were stimulated with Zymosan depleted (Zymd, 5 μg/ml) from Invivogen (San Diego, CA, USA) or (R)-Pam3CSK4 (bLP, 10 nM) from EMC Microcollections GmbH (Tübingen, Germany). Protein secretion analysis was performed using the supernatants.
To quantify the interleukin and chemokine protein-level after stimulation with huBPI, Zymd, and (R)-Pam CSK4, a multiplex-system was used and determined by using the Luminex® technology (Austin, TX, USA). The cytokines were captured with anti-mouse capture-antibodies and detected by biotinylated antibodies specific for the respective protein (Table 3). Protein concentrations were calculated using a reconstituted standard curve of the analyzed proteins (SM039, #LMC4031, Lot #1438354; Thermo Fisher Scientific; Standard Mix 1a, #EPX010-20603-901, Lot #111709101, eBioscience).

CD3+CD8+ T cells = test: Intracellular IFNγ staining of CD8+ T cells after supernatant stimulation; details: SN BPI vs SN NT, 24h, n=4 (FIG. 13D)
Method: Naive CD4+CD25-CD44-CD62L+ T cells were isolated from peripheral lymph nodes and spleen of C57BL/6J mice and purified by MACS and FACS. Naïve CD4+ T cells were cultured in the presence of aCD3 and aCD28 antibodies and dendritic cell-derived supernatant after stimulation with BPI (SN BPI, BPI 200 nM) or after stimulation with ODN 1826 (SN CpG, ODN 1826 20 nM) or after stimulation with BPI and ODN 1826 (SN BPI+CpG, BPI 200 nM, ODN 1826 20 nM) or supernatant without addition of BPI or ODN 1826 (SN NT). On day five, cytokine levels were measured by Luminex. • A. Th1 differentiation as shown by detection of IFNγ (n=3). • B. Th17 differentiation as shown by detection of IL-17 (n=3). • C. […] Lymph node cells were stimulated with aCD3 and aCD28 antibodies and SN BPI or SN NT and incubated for 6h before adding a protein transport inhibitor cocktail and incubating for additional 16h. Cells were fixed and permeabilized and stained for CD3, CD4, CD8, and IFNγ. Lines are connecting the amount of IFNγ-producing CD3+CD8+ T cells after treatment with SN BPI or SN NT for 24h. • Bars represent the means±standard error of the mean. Statistics for comparison were performed with the paired Student's t-test (A to C) or the ratio paired Student's t-test (D).
All described work steps were conducted on ice. […]

B1: bactericidal/permeability-increasing protein (protein)
chain: RIKIPDYSDSFKIKHLGKGHYSFYSMDIREFQLPSSQISMVPNVGLKFSISNANIKISGKWKAQKRFLKMSGNFDLSIEGMSISADLKLGSNPTSGKPTITCSSCSSHINSVHVHISKSKVGWLIQLFHKKIESALRNKMNSQVCEKVTNSVSSELQPYFQTLPVMTKIDSVAGINYGLVAPPATTAETLDVQMKGEFYSENHHNPPPFAPPVMEFPAAHDRMVYLGLSDYFFNTAGLVYQEAGVLKMTLRDDMIPKESKFRLTTKFFGTFLPEVAKKFPNMKIQIHVSASTPPHLSVQPTGLTFYPAVDVQAFAVLPNSSLASLFLIGMHTTGSMEVSAESNRLVGELKLDRLLLELKHSNIGPFPVELLQDIMNYIVPILVLPRVNEKLQKGFPLPTPARVQLYNVVLQPHQNFLLFGADVVYK
modifications: labeled with NT647 (Monolith NT Protein Labeling Kit RED-NHS) in the MST experiments
notes: recombinant human BPI, aa32-487 of huBPI with N-terminal HA signal peptide, expressed in HEK293T cells
Which results are given for B1?
CXCL10, IL-2, IL-6, and IL-12p40 mRNA expression (BMDCs [1]): increase of CXCL10, IL-2, IL-6, and IL-12p40 mRNA expression; IL-4 level (BMDCs [2]; BMDCs (FIG. 12)): not induced; IL-2, IL-12p40/p70, and IL-6 protein secretion (BMDCs [2]; Luminex, n>7, 4h (FIG. 3)): increase of IL-2, IL-12p40/p70, and IL-6 protein secretion; stimulatory effect on the expression of IL-6 (IL-6 level), BPI vs Zymd vs bLP (BMDCs [2]; Zymd 5 μg/ml, bLP 10 nM, Luminex, n>7, 4h (FIG. 3)): comparable; increase of IL-2 and IL12p40/p70 compared to Zymd and bLP (BMDCs [2]; vs Zymd 5 μg/ml and bLP 10 nM, Luminex, n>7, 4h (FIG. 3)): significantly higher; activation of CD8+ T cells (IFNγ-producing CD3+CD8+ T cells) (CD3+CD8+ T cells): activation of CD8+ T cells
